Laboratory results published in the supplement of paper PMC12042874.
± gives the uncertainty stated by the source.

assay: amyloid nucleation score (Sup35N fusion, yeast selection) (log enrichment); library NNK2; higher = more nucleation; inactive = no reads after selection
Procedure, shortened: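 After 24 hours of induction with 100 μM copper sulfate, psi-negative yeast expressing peptides of 20 random codons fused to Sup35N were grown for 7 days at 30°C on medium lacking adenine and uracil. Input and output plasmid inserts were sequenced with Illumina, and sequences with under 100 input reads were discarded. Scores for nucleation are the DiMSum log enrichment of output over input reads, centred on the mode score of non-aggregating sequences.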

| Substance | amyloid nucleation score |
| --- | --- |
| WNYSNRNDYELFRTLK | 0.316 ± 0.57 |
| WPFPKSRNRS | -0.076 ± 0.79 |
| WPSLVLGYDMLGVI | -0.025 ± 1.1 |
| WQSAEEWMLPYGVNMVVSWA | 0.483 ± 0.46 |
| WRDGSYLFPDVPERPSRNSG | inactive |
| WRDSVDTGISSGKVGGRCSE | -0.047 ± 0.27 |
| WRLSLGYPVSALQMRMPGTL | 2.1 ± 0.22 |
| WRMGTPNIRMLC | -0.318 ± 0.38 |
| WRRTTYYGRDRGQVLGNNAG | -0.009 ± 0.36 |
| WRSGGQPCVSGSWSVTNLCV | 3.1 ± 0.092 |
| WRVLFQDFRCKINYLGSSSR | inactive |
| WSANVPQWLLTRPYFDSHHN | inactive |
| WSEYRFRHIPKLKKCYQVD | 0.175 ± 0.32 |
| WSHGHIFIRD | inactive |
| WSIVGLGSRCWREVASCSTV | 0.636 ± 0.49 |
| WSKEFEIGSNHSKSNTRCGR | 0.244 ± 0.46 |
| WSKQKVAT | 0.814 ± 0.21 |
| WSMSVLVSPHVMFKNAMEVL | 0.22 ± 0.28 |
| WSMVTVLRGDRG | 0.525 ± 0.54 |
| WSNPTKLFHELAVQLNYTMP | 0.903 ± 0.74 |
| WSPLSLVTIELLVQSVIDPF | -0.351 ± 0.48 |
| WSRFSCRT | 1.24 ± 0.2 |

| Substance | amyloid nucleation score |
| --- | --- |
| WSTAFSKLNSSRKSD | -0.582 ± 0.76 |
| WSTASSVLIICIQRFF | inactive |
| WSWGGHAVMFY | -0.424 ± 1.1 |
| WTDSHSKMRNFRPG | -0.259 ± 0.49 |
| WTGGFSLQSVHCNQN | -0.393 ± 1.1 |
| WTLYKTMIMVSSVPFIIKIC | -1.2 ± 0.76 |
| WTNFVGLSALFSMWV | -1.54 ± 1.1 |
| WTRAVKPPV | -0.113 ± 0.34 |
| WTSLSNVFRLTNMYTRVSKW | -0.55 ± 0.76 |
| WTYPLC | -0.744 ± 1.1 |
| WVPRRSSLCGAILYLGTKSM | -0.965 ± 0.78 |
| WVYRLMLTMLR | -0.055 ± 0.41 |
| WWHLKTQKSP | -0.09 ± 0.44 |
| WWKGWARTNNVMRAFVVMFY | -0.655 ± 0.44 |
| WWKYLVICLWARMALKGFSL | inactive |
| WWNTGCVGLMCICTLFSGSR | 8.985 ± 0.081 |
| WWRNFD | -0.526 ± 0.76 |
| WWWPSVWTCRM | -0.716 ± 0.78 |
| WYGFFTVLWSKTVRLDFNPM | -1.05 ± 0.54 |
| WYHGSASCEYIGYVYPWHAA | 3.58 ± 0.064 |
| WYRPTSYRRKHKGDISLDLG | -0.226 ± 1.1 |
| WYTPRLRMLHLAEKGVRVVV | 4.31 ± 0.089 |

| Substance | amyloid nucleation score |
| --- | --- |
| WYVDSLLWEILSALECCVFM | inactive |
| WYVYSESRIS | -0.267 ± 0.42 |
| WYWHPCTIFL | 5.46 ± 0.038 |
| WYYGLTPSQACGGEIPCDFQ | 6.523 ± 0.056 |
| YADCVYDREPYTV | inactive |
| YAFSCFKSNVFWKGTGNRRG | -0.973 ± 0.63 |
| YAGWVGI | -0.387 ± 1.1 |
| YAMCTWSV | 1.88 ± 0.13 |
| YAPLSTDPYILVHCIRPRLA | -0.558 ± 1 |
| YASCLSSKLCDEDNPTYW | -0.488 ± 0.39 |
| YAVAEGFVASGYWTAYMPLS | 0.487 ± 0.62 |
| YCCGGRIRKSRLINFYVTWS | -0.046 ± 0.5 |
| YCGLVWVSKYSVTRAFRRNV | -0.297 ± 0.39 |
| YCHALARLSGFL | 0.127 ± 0.27 |
| YCNNYG | -2.65 ± 0.75 |
| YCPDLLHYHL | 0.256 ± 0.21 |
| YCTSRVTTRSFISDCLTWIR | 1.97 ± 0.069 |
| YCWMRRMKSLPGNMYVLAT | 0.25 ± 0.8 |
| YCYARD | -0.172 ± 1.1 |
| YCYVCDVNVYVYLTAIGNKF | 7.43 ± 0.085 |
| YDIVVNYLNHHQR | 4.88 ± 0.11 |
| YDRKGIQCKRLAGPGQRHRS | 0.244 ± 0.39 |

| Substance | amyloid nucleation score |
| --- | --- |
| YDSLYWCGSWYLGLSWISLR | -0.953 ± 0.62 |
| YEFCVAFFDRNNCNREP | -1.6 ± 0.75 |
| YEGYLVSVQLRRMWDVQLGP | 3.79 ± 0.054 |
| YEIFGRTNPMMVDKNNAIWV | -0.691 ± 0.42 |
| YENFLLLL | -0.676 ± 0.26 |
| YFCPVPYLAPVLCRLFKVKL | -0.87 ± 1 |
| YFELNLNVKRRGGKWYYSLI | 1.16 ± 0.27 |
| YFGFGKSGDYHHSWKRWLPR | -0.511 ± 0.35 |
| YFGSCPREKLGILYKELLVL | -0.563 ± 0.79 |
| YFKFFWNAQMLGCA | inactive |
| YFKRSGLSICRTGKLALGWH | inactive |
| YFKYNVYIT | 1.3 ± 0.23 |
| YFLALAYRAVPLLWYRPRGL | 0.751 ± 0.38 |
| YFMSRRE | -0.04 ± 0.45 |
| YFNSLLPLLSPFYRPNIALL | -0.299 ± 0.56 |
| YFQKGFDVARIHLSFTLVLY | -0.913 ± 1 |
| YFSYPC | -1.82 ± 1 |
| YFYCRYYMNRWNYYL | -0.396 ± 0.33 |
| YFYNGWRERARSEQCNHRT | 0.441 ± 0.43 |
| YFYPFLCLTKNQLVLSNRRT | 4.47 ± 0.073 |
